Results on twelve sequences are retold here after the DeepSol protein solubility set.

The nature of this data set: soluble on expression in E. coli; label from the status in PepcDB or PDB records.
Regarding “MAHHHHHHMIYKAYGSPENNSGNTHMYSMYAPPNAYVQGQGGSRTMYGYAGTGGHGSGHPFGYHANPSMGVTYEYNGGINVHHNGSAYRVGGGTNGRDRGGDVVSLRNLHGYDQQATSDYEVHDNQLKAPVVVTPATVVSTLGSARLFSKPPKPIVYGSRCVVRICDAFQEGRCAAGDRCHDIHVRPEYLAETRMEMSSWLFDRECEFRQTMEMDSEKTFSIFVADLKEVVEVPINSLVFTKGLYVDPATRAKRARGAGNHAHVHAMMQVPTSCGLYSTDPLQCKWERWCNQVHIDHRWMQVKKAEFDQWFIELQNRYFSLAPDDTFTVHDPQLKSSISLPKFSIAGFSRGLFQGSMKKLASVCLLFQRGKCTAGSCCNQIHVFPQYLSLAREFAAMEQSPDALPEEKQRLRREMELLRGPLMKQEKQETAAMESASLPNVVSSANEGTHSDAMDIKAAAEEDLASCGALFEHVQVDEDVEPVSHLVSANTSLTRRMNASAPDISLSVARHMNSDGSYSFNPYGSVTSLPDGSTSFNRFPGTRGSGQPMDGNGSVQYTPGSVQLLSTDTKGMRRLVALVSPESGNGAVELHRNGDDMGIGGNAGDGGTATVAHDRAPPFAAGHRSNGGYRAVAHPLGDEGGRYDSGTQGEQSCSLHPLDFDASWHFSPTPLLGFDASTTSTHRNGSIRDEDPAMHAHLRLTASNSSYIYPGSSTTSQQNLLSTPMHRGVTSNATTAARVRLAASAASSRTHAHRSATSLPDSSTTNPAMGGSVSSMPTARPTFVGEQLTGTR”, the “soluble on expression in E. coli” value is reported as “not soluble”. Regarding “MGVLITGCGSRGDTEPLVALAARLRELGADARMCLPPDYVERCAEVGVPMVPVGRAVRAGAREPGELPPGAAEVVTEVVAEWFDKVPAAIEGCDAVVTTGLLPAAVAVRSMAEKLGIPYRYTVLSPDHLPSEQSQAERDMYNQGADRLFGDAVNSHRASIGLPPVEHLYDYGYTDQPWLAADPVLSPLRPTDLGTVQTGAWILPDQRPLSAELEGFLRAGSPPVYVGFGSGPAPAEAARVAIEAVRAQGRRVVLSSGWAGLGRIDEGDDCLVVGEVNHQVLFGRVAAVVHHGGAGTTTAVTRAGAPQVVVPQKADQPYYAGRVADLGVGVAHDGPTPTVESLSAALATALTPGIRARAAAVAGTIRTDGTTVAAKLLLEAISRQRSSVPAAKLAAALEHHHHHH”, the “soluble on expression in E. coli” value is reported as “soluble”. Under “MSLKIRLPEMIDYFRKENGWTMKEFGEKLGKSESAISKWIKGVRSPMVEDFDKMVNLFNTDPDTLMYGASDLSTTLSEINKISSQLEEPRQKVVLNTATNQLDEQNQEKKKESKVIPINKIPDDLPPYISRKILENFVMPTNTMEYEPDEDMVDVPILGRIAAGLPLDAVENFDGTRPVPAHFLSSARDYYWLMVDGHSMEPKIPFGSYVLIEAVPDVTDGTIGAVLFQDDCQATLKKVYHEIDCLRLVSINKEFKDQFATQDNPAAVIGQAVKVEIDLEGHHHHHH” stands “soluble”; under “MEKKVEAILEFDKIKKQLAEFASSSLGEQAIYELAPATDFQVVQKAQLETEEGAKIIRLRGSAPITGLTDVFAHLKRLEIGGDLNGLEIYQIGSNLRVSRQMKNFMNDLLEIGVEIPLLGALSDELLVLKDVEEDIAISIDESGKILDTASEALSSIRRTLRRTEDRVREKLESYLRDRNASKMLSDAVITIRNDRYVIPVKQEYKGHYGGIVHDQSASGQTLFIEPQSVVDLNNERKALQAKEKQEIERILAEISASLAGWINEIHHNTFILGRFDFILAKARFGKALKAVTPHLSDTGIVHLIAARHPLLDAEKVVANDIYLGEDFSTIVITGPNTGGKTITLKTLGLLTLMAQSGLQIPAQEDSTIAVFENVFADIGDEQSIEQSLSTFSSHMTNIVSILEKVNHKSLILYDELGAGTDPQEGAALAIAILDASHKKGASVVATTHYPELKAYGYNRAHATNASVEFNVETLSPTYKLLIGVPGRSNAFDISRRLGLSESIITEARSLVDTESADLNDMISSLEEKRNLAEREYEEARELARGADALLKDLQKEITNYYQQKDKLLEQANEKAAGIVEKAETEAEEIIHELRTMQLNGAAGIKEHELIDAKTRLGKAKPKTINKAIPKAPKQKPHVFQAGDNVRVLSLGQKGTLLNKISDKEWNVQIGIIKMKIKTTDLEYIEPEKPKKQRIITSVHSSDSPAKSELDLRGERYEDAIQKVDKYLDEALLAGYPQVAIIHGKGTGALRTGVTEYLKNHRMVKSIRFGAAAEGGNGVTIVEFKLEHHHHHH”, “not soluble”; under “MGSDKIHHHHHHMFDPETLRTFIAVAETGSFSKAAERLCKTTATISYRIKLLEENTGVALFFRTTRSVTLTAAGEHLLSQARDWLSWLESMPSELQQVNDGVERQVNIVINNLLYNPQAVAQLLAWLNERYPFTQFHISRQIYMGVWDSLLYEGFSLAIGVTGTEALANTFSLDPLGSVQWRFVMAADHPLANVEEPLTEAQLRRFPAVNIEDSARTLTKRVAWRLPGQKEIIVPDMETKIAAHLAGVGIGFLPKSLCQSMIDNQQLVSRVIPTMRPPSPLSLAWRKFGSGKAVEDIVTLFTQRRPEISGFLEIFGNPRS”, “not soluble”. Under “MAHHHHHHMTHYSRKPQVSSKSAKAKVSDLRCHYKNTFETANVINGMPLRKAQQLYRQVLAKTRCIPFKRYNGKIGRTAQAKEWGQTKGRWPRKSVVAMMSLLKNAEANAIEKGLDPNQMVIKHVQVDQAARMRRRTYRAHGRITPYMCSPCHVQLFMSEKKERVPAPKSAPKK” stands “not soluble”.

“MGSDKIHHHHHHAQRINHVQEAIANYDYEAALTLIAKEKPTIPLLLQKGKAQRGLGMNTEALSTYQEIIANDTANTRAYIEAAECCRSLAKYQQALKYYEQALDLNPENKYVRIQYIGLLLSLQKFQDALGESSLMTEKDSSAIALHLQAQSFEGMGELLPATGCYYNIQEKYPDDYLAAAKLAALNIAGSYFNEAIEATEKYRQTDTTNIAVNRQNALAYCLNKDYPTAIQRYEYLVSQGDSSFHTCYYLGISYYAEEKYYEAHDFLEAARKHDPENVNLLYYLGRACAKTSWKKLGVEYLEKALDLTIPKDSNMVRLYIGMTDCYKMAQMPKEQIESIRERYRKYDKQNHKLLYDMAFIYFYSLKDKKNTERCLEAFLKTRPKEDKEEEAKLNERGELVLGTKNYYNAAANWLKDIQSKQKIEDFFLGGNVPAQKPE”: the “soluble on expression in E. coli” value is recorded as “not soluble”. As for “MKNNVKNWTTKEVKQSLDKFNNILIKNTFLLQYLKKEFSASSAYCLSMLPEEEDIYEILVNGNIIIDLEFNKHTNETVVINVTDVDEYLKTLTNESGRVFFTLAKEIGKQKNI”, the entry is “not soluble”; as for “MGHHHHHHSHMKDLTDMDKNSPEAWCAAGNCFSLQREHDIAIKFFQRAIQVDPNYAYAYTLLGHEFVLTEELDKALACFRNAIRVNPRHYNAWYGLGMIYYKQEKFSLAEMHFQKALDINPQSSVLLCH”, “not soluble”; as for “MTVASLRGRTGTPVPKREVELRATWSSECVTRPMTEEERIKYGVAIPPKITNADGVQERRPILLPKKSKYAHVTKELVLTEFAKGKTAVQIEREQGMKPNTLYARLRAWGIRSPHSPKLRNETAAPPPSSSDTHRTDNRIDDIFWDVQIELRRAMSRFPRFNSAHEGYAVVLEELDEAWQAIKANDLIHARLGNDAGGRDGDPFPARPSDRRKGGGTATMTKAERSKSKRTATERTKLAIAPNPNRCFVLFSSTYLTAGSAIVSLNSLVRQLEKHPADHPIEDIRLDREALLMEILFVPEGGDPHAKHRSGPDQGI”, “not soluble”.

As to “SHMALRIIPCLDIDGGAKVVVKGVNFQGIREVGDPVEMAVRYEEEGADEIAILDITAAPEGRATFIDSVKRVAEAVSIPVLVGGGVRSLEDATTLFRAGADKVSVNTAAVRNPQLVALLAREFGSQSTVVAIDAKWNGEYYEVYVKGGREATGLDAVKWAKEVEELGAGEILLTSIDRDGTGLGYDVELIRRVADSVRIPVIASGGAGRVEHFYEAAAAGADAVLAASLFHFRVLSIAQVKRYLKERGVEVRI”, the “soluble on expression in E. coli” value is “soluble”. Consider “GKTFPSRAYIDGTLSARVIAHEFGHNLGLSHAKALDCGDASVSNNCSVIEYGDSYDVMGTPDMGYINTYYKERMGWLNDAESPNILTATQDGLYEIAEYETQDITQNIALKIPRGVNPNSGLKEWFYVEYRQAMGYDQFLDDRSYMLFRGDVTDGVIVRLVEEGAEESYILHMKPNSDYSQVYGRKDWKDTALPVGDSFTDP”, for which the “soluble on expression in E. coli” value is “not soluble”.
